Results on 131 substances are retold here after the supplement of paper PMC12042874.

The nature of this data set: amyloid nucleation score (Sup35N fusion, yeast selection) (log enrichment); library NNK3; higher = more nucleation; inactive = no reads after selection. In short, it runs like this:
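Growth for 7 days at 30°C on medium lacking adenine and uracil followed a 24-hour induction with 100 μM copper sulfate of psi-negative yeast expressing peptides of 20 random codons fused to Sup35N. Input and output plasmid inserts were sequenced with Illumina, and sequences with under 100 input reads were excluded. Nucleation score is the DiMSum log enrichment of output over input reads, centred on the mode score of non-aggregating sequences.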

± gives the uncertainty stated by the source.

Consider KEMGW, for which the amyloid nucleation score result was “inactive”.

For the substance CLFSLLYPCGWINYSNSNMS, the amyloid nucleation score was 0.437 ± 0.17.

Regarding LCSYSIESFALLHVFNEAFQ, the amyloid nucleation score result is “inactive”.

In the case of NAYLCGWL, the amyloid nucleation score entry is “inactive”.

With SKVQVIFLSSFFGTIQLWVL, the amyloid nucleation score entry was “inactive”.

On to NSNYSVG, for which the amyloid nucleation score result was “inactive”.

On to SFHSPYL, for which the amyloid nucleation score entry is “inactive”.

Take SDYGSFLEFH: the amyloid nucleation score was -0.27 ± 0.79.

With AWTTQPPYMFSSGFWNFYVC, the amyloid nucleation score entry was “inactive”.

Turning to FRFSGWLCWSTALPILVRKD, the amyloid nucleation score entry was “inactive”.

For MAKTMM, the amyloid nucleation score entry was “inactive”.

LTSPFDPISLPKS: the amyloid nucleation score result is “inactive”.

In the case of AFKWSRSCGMWLTDIGAWW, the amyloid nucleation score result was “inactive”.

As to WYTIRDYRAFLSVM, the amyloid nucleation score result was “inactive”.

For SMRLEFGLSMCVWVVDPSN, the amyloid nucleation score worked out at 0.706 ± 0.15.

Consider NVHMMC, for which the amyloid nucleation score result was “inactive”.

Take GSNVNEVKNAQYTSRVGVCR: the amyloid nucleation score result is “inactive”.

EDFPRALVVRSYQWIYIQNV registered an amyloid nucleation score of 1.24 ± 0.12.

Consider KISLISTNCLYMVFPYRYSR, for which the amyloid nucleation score amounted to 2.13 ± 0.06.

TNYWNHVVYVTGNVCDP: the amyloid nucleation score entry is “inactive”.

Consider RRPVRSSNGALTLICRDREF, for which the amyloid nucleation score entry is “inactive”.

As for RFSYSDTI, the amyloid nucleation score result is “inactive”.

Regarding NIDVYDLMRLSVFDNKMATG, the amyloid nucleation score result is “inactive”.

In the case of SYRYNRLYHWVHDLLCSTLV, the amyloid nucleation score entry was “inactive”.

On to CYNAKCHFIGYDVAGNSGVW, for which the amyloid nucleation score result was “inactive”.

As for NDGTSILSTQSLSVRWMVRV, the amyloid nucleation score entry is “inactive”.

On to YCWYRQMDNSRGGYYMWVS, for which the amyloid nucleation score entry was “inactive”.

Substance VLSTVFKAKPNHNRAFMG registered an amyloid nucleation score of 0.063 ± 0.78.

As for LPAGVFTDSACVVVSANKAT, the amyloid nucleation score entry was “inactive”.

As to YSGGKGSGRELRYTLLVRGT, the amyloid nucleation score entry is “inactive”.

On to YCSCNEGGLDPSLTMTL, for which the amyloid nucleation score entry is “inactive”.

In turn, LVIIQCSNRGVSKYRLVGTD returned an amyloid nucleation score of 1.82 ± 0.071.

For NDNINRSPESSALWYD, the amyloid nucleation score entry was “inactive”.

For the substance LLPLDSHYISSPFY, the amyloid nucleation score entry was “inactive”.

As for MSWLKQGLTDR, the amyloid nucleation score entry was “inactive”.

Consider YVITQQSSFSVTLYSSINFC, for which the amyloid nucleation score was determined as 0.625 ± 0.33.

Consider FWRYAYNCYCGYSCDQIGDS, for which the amyloid nucleation score entry was “inactive”.

As for SSGVTVDGSMCRI, the amyloid nucleation score result is “inactive”.

On to TLYFFKYFWMFVVMCKINKA, for which the amyloid nucleation score result was “inactive”.

Regarding HRPRLGI, the amyloid nucleation score entry is “inactive”.

As to LFYIPFCMSFWTSKDRNA, the amyloid nucleation score entry is “inactive”.

Turning to VFRTSLLKSYFGFNMKCDNY, the amyloid nucleation score stood at 0.039 ± 0.26.

In turn, CCGMYYNSMASNVWSER yielded an amyloid nucleation score of 2.17 ± 0.084.

In the case of NYNYNRSAHSGCPPGLEGVM, the amyloid nucleation score result is “inactive”.

Take IQGYLANDVPMRNWPG: the amyloid nucleation score entry was “inactive”.

Turning to LKVVYGSLALPSFKFIWQAE, the amyloid nucleation score result was “inactive”.

For the substance ITGHSVLCWGNSSSTMCEMG, the amyloid nucleation score entry is “inactive”.

YNCRTLNCNYQVYYFVFLSD displayed an amyloid nucleation score of 3.15 ± 0.062.

As to DMSHMIEICFVTNYTKGYVT, the amyloid nucleation score entry is “inactive”.

Take LRFTRRFYSRGWVRW: the amyloid nucleation score result was “inactive”.

On to MAINYTFFPPRLVT, for which the amyloid nucleation score entry is “inactive”.

Turning to LVYLAF, the amyloid nucleation score entry is “inactive”.

Take KNKYQLN: the amyloid nucleation score result is “inactive”.

As for NTDPTQVFQASN, the amyloid nucleation score entry is “inactive”.

With SLVYMWPDGTFLRWMGAWH, the amyloid nucleation score entry is “inactive”.

Regarding AYRVVQTGDLHGRCAWIVNV, the amyloid nucleation score was 0.088 ± 0.88.

Turning to EPGDRQARKSFRLSFWAQEV, the amyloid nucleation score turned out to be 0.422 ± 0.21.

AVSSVLIHALYLVGMLPPSN displayed an amyloid nucleation score of 1.83 ± 0.092.

Take PWLSVSRVVVGRSLDGNNCP: the amyloid nucleation score entry is “inactive”.

On to GADKFSMLRVYGICRLGSAC, for which the amyloid nucleation score is -0.024 ± 0.93.

In turn, PSNYWNEFYFCSSIHSCGE registered an amyloid nucleation score of 3.28 ± 0.07.

For AAMHLDILNGTATRLSYSCA, the amyloid nucleation score result was “inactive”.

Take VCTYNLAFGYFGVVWLTFVV: the amyloid nucleation score is -0.519 ± 0.82.

Take QWKVLLRACHRLEDALCCIS: the amyloid nucleation score entry is “inactive”.

In the case of FQIWCIFYLNMS, the amyloid nucleation score was 2 ± 0.095.

Take MKCFSVSVLCNLGSFLCEVT: the amyloid nucleation score stood at 0.146 ± 0.9.

Consider VNTSINVYRYPFRCRSYRMH, for which the amyloid nucleation score worked out at 0.833 ± 0.085.

Consider SKHSVAGQTKC, for which the amyloid nucleation score entry was “inactive”.

Take EFWLISFQSQLSFYCDFRYD: the amyloid nucleation score result is “inactive”.

GVFFFNYLNS displayed an amyloid nucleation score of 0.63 ± 0.14.

In turn, YVQIGFILIFISNYLSCESA came in with an amyloid nucleation score of 1.8 ± 0.071.

As to EKDNKLLVICMLV, the amyloid nucleation score entry was “inactive”.

As for GCFGPLCDRLSEWMENCWKK, the amyloid nucleation score was 0.392 ± 0.35.

For NHFAAMLSCFSSRVVVTYQA, the amyloid nucleation score result is “inactive”.

Turning to APRGVVLPWTLDIASSLLTP, the amyloid nucleation score entry is “inactive”.

Consider FYSYRTCDGRIAGIIAGNRA, for which the amyloid nucleation score entry was “inactive”.

Regarding WVLEE, the amyloid nucleation score result was “inactive”.

On to IVISEALVFASGYKQVFNSV, for which the amyloid nucleation score entry is “inactive”.

With YKGDKFVRCSVW, the amyloid nucleation score entry was “inactive”.

With EGFWMNAPGGRISYSINWIA, the amyloid nucleation score result was “inactive”.

In turn, TCCICIMSSYRLGRNLLIEL gave an amyloid nucleation score of -0.075 ± 0.26.

With ECYTSCVMIYIIHCYKNLRL, the amyloid nucleation score entry was “inactive”.

Consider CIGFGCLLIVHLPIYACPWC, for which the amyloid nucleation score result was “inactive”.

For the substance SVRRYRSYLVLRRRTGHDRN, the amyloid nucleation score entry was “inactive”.

For YGMDIIWW, the amyloid nucleation score result was “inactive”.

As for HWVLQYRCSARKRSHLRYSM, the amyloid nucleation score result is “inactive”.

Take VLKMAACNPGTNSLSTPGCG: the amyloid nucleation score result was “inactive”.

For the substance VICRKLVMPFVESNRWHWSN, the amyloid nucleation score entry is “inactive”.

For LAMAPITKSSKLMLAFMR, the amyloid nucleation score result was “inactive”.

Regarding YYTFSVHSYGEFMRCLFIQH, the amyloid nucleation score result is “inactive”.

Consider SEHFRN, for which the amyloid nucleation score entry is “inactive”.

NWVLARIWW had an amyloid nucleation score of 0.755 ± 0.18.

FNVFLSLATGISDGYYMLTA: the amyloid nucleation score result was “inactive”.

For YCSLMMMVYRDFFTLVNASV, the amyloid nucleation score result was “inactive”.

GFRFNKIRMSPDSNTLCGCA: the amyloid nucleation score result is “inactive”.

For the substance HDLAETCGSSPI, the amyloid nucleation score result is “inactive”.

On to DIRSGTLC, for which the amyloid nucleation score entry was “inactive”.

With SYLESISHPALESARVYVST, the amyloid nucleation score result was “inactive”.

For RYRLSMELT, the amyloid nucleation score result was “inactive”.

On to VYLKLSILFSCAFSN, for which the amyloid nucleation score result is “inactive”.

Regarding LNCIFLVKVIYWTRFTWSTY, the amyloid nucleation score entry was “inactive”.

Regarding TVTHLFGHRVGMSLVFNSTY, the amyloid nucleation score entry was “inactive”.

As to SVVAYFLLIRYGDYRYHLQM, the amyloid nucleation score entry is “inactive”.

On to ILVGNFSILWY, for which the amyloid nucleation score entry was “inactive”.

For SLFFLSMFVHLMDEMWDWES, the amyloid nucleation score result was “inactive”.

Consider ASANLRILYLWTIGNVLNAY, for which the amyloid nucleation score result is “inactive”.

NSCYTASCS registered an amyloid nucleation score of -0.381 ± 0.63.

With ISVGVLSVCCGIC, the amyloid nucleation score amounted to 2.57 ± 0.078.

On to MTYST, for which the amyloid nucleation score entry was “inactive”.

For ATGLWGICGWTPDTNHLQVM, the amyloid nucleation score entry was “inactive”.

For GVHIMRGGGIYVVGGLESWA, the amyloid nucleation score entry was “inactive”.

On to LNLAKQCMLPSFPSYMVWYF, for which the amyloid nucleation score result is “inactive”.

Turning to FGSPYWLAYIV, the amyloid nucleation score entry was “inactive”.

In the case of VVTASYWLLCLSLYFSAS, the amyloid nucleation score result is “inactive”.

Take IFILRLDIIALLNVTGIRIW: the amyloid nucleation score entry is “inactive”.

As to SCTYVSFVSSVRVTA, the amyloid nucleation score entry was “inactive”.

Regarding GWPVSLN, the amyloid nucleation score entry is “inactive”.

Turning to CNYWCDVGLYGSKAFERSAT, the amyloid nucleation score result was “inactive”.

Regarding PGIIGTSNSFYQCVMWQVFG, the amyloid nucleation score was 2.13 ± 0.063.

As to KISISD, the amyloid nucleation score entry is “inactive”.

Turning to LGGCPSNDGSFYVSSSLLHV, the amyloid nucleation score entry is “inactive”.

With SSKASSFVFMACGPGTEVIG, the amyloid nucleation score entry was “inactive”.

As for RVMRSDDVWMCSSLHDFCAV, the amyloid nucleation score result is “inactive”.

GMERFNGFKRVFMDSGCLHR displayed an amyloid nucleation score of -0.707 ± 0.96.

For YGDWIHATCVICSLSF, the amyloid nucleation score was 3.39 ± 0.05.

For CYNQRGCTIGILQFLPRPVW, the amyloid nucleation score entry is “inactive”.

For the substance LEGSYPRADIAVNVFTVFTQ, the amyloid nucleation score entry was “inactive”.

With YTRNKQDIWGGNHGSRCQNG, the amyloid nucleation score entry was “inactive”.

Regarding DAPVVTVRAGNAGNHSMIPW, the amyloid nucleation score result is “inactive”.

On to RGHNRRMYTWRVCRPSHHCK, for which the amyloid nucleation score result is “inactive”.

For FTLFMDRVIFASSVDSTEIL, the amyloid nucleation score entry is “inactive”.
